Assays:
Test in all cases: cell-based or functional assay
[1] = target: SARS-CoV-2的Alpha突变株(B.1.1.7)假病毒的刺突蛋白 (SARS-CoV-2) (UniProt P0DTC2)
[2] = target: SARS-CoV-2的Delta突变株(B.1.617.2)假病毒的刺突蛋白 (SARS-CoV-2) (UniProt P0DTC2)
[3] = target: SARS-CoV-2的Kappa突变株(B.1.617.1)假病毒的刺突蛋白 (SARS-CoV-2) (UniProt P0DTC2)

What does the source list for CB6 (antibody)?
假病毒中和 IC50 (荧光素酶报告基因, 293-ACE2细胞) [1]: 0.0557 µg/mL; 假病毒中和 IC50 (荧光素酶报告基因, 293-ACE2细胞) [2]: 0.00343 µg/mL; 假病毒中和 IC50 (荧光素酶报告基因, 293-ACE2细胞) [3]: 0.0147 µg/mL

— CN116178530A
